Laboratory results from the DeepSol protein solubility set.

Test: soluble on expression in E. coli; label from the status in PepcDB or PDB records

Sequence	soluble on expression in E. coli
MPKGGASCLTPVYAGIRDDLNSFLRAYLQFESVRFFDYKVMFENRGMVGLFTGRHNSAEIIEFNECLLVHCLPYMEECVCPGTPRSLKERLFGLYSLYTFYYIQQEKHVVKVRMDPDSSRNFRRFAQFLLTEKIYDAYALCQKLLEDKAIKQVAFISIHDPSHFKRFYTDDKVSGVSIRTNLNDPLVNVKALVEQFDALGVIHKEYSRLKMKLGITSWMKLKDPIEELKKIIKTSLQAVESSSGVDEIVHTDHSAQQLASRGMQRSSIKDQAHSAALKFSRTRRHRSVKPVIVPAETFEYAPDPKKKKEAQETMPVSGRNGRKRGRPKSVPKSKVSNPARILYEKLAEDMISEHLSTDLTEQEAFTDRPQSSLEPQKNELFNWDAAPQDAQISNQTTEPSCGEDIFIEDFGEFKSQDDVMFTAEDFNDSLIPPLADSDSDLEIDA	not soluble
MSGNRGGSYISGIVPSFKERRPFHERQKDVEEIRSQQPNKVPVIIERFDGERSLPLMDRCKFLVPEHITVAELMSIVRRRLQLHPQQAFFLLVNERSMVSNSMSMSNLYSQERDPDGFVYMVYTSQPAFG	not soluble
MGSDKIHHHHHHMKRTYESGDKMIHTRGKAEGLREKLATILSQDYKELAVQDLKVIGTGVQNIVFRGDSEKGALAFRVPWEREVENINEDLFNSRISLQKEAELSKYCHSKGISVPRIHGLHLSAELDFLISDCVYTDHMPISAHKIGELVSKLHSMPIDDLHYEQNIREPISKYIAERIVKRIEGFNTITNCGMKLPDTKTIEHILSTADHEKSLLHMDIRPANLIGYNGEVKAIVDWDNALIGHPLLELMRIAETNEVSWEEFKDGYKNDSIFNATSHIVSLFYRLDTAVMLANLFIAHLKIEDKGVFYKERVKAIHHEIYKSL	not soluble
ELVVTQESALTTSPGETVTLTCRSSSGAVTTSNYATWVQEKPDHLFTGLIGGTNKRAPGVPARFSGSLIGDRAALTITGAQTEDEAIYFCALWNSNHLVFGGGTKLEIKRTVAAPSVFIFPPSDEQLKSGTASVVCLLNNFYPREAKVQWKVDNALQSGNSQESVTEQDSKDSTYSLSSTLTLSKADYEKHKVYACEVTHQGLSSPVTKSFNRGEC	soluble
MFYILNNVLKNIKTLDNVKSKFFLKDSFLKNKLKANNLDDNLSSHIFFNEIFVSLRDDEKKEEHKKVLLFNKVRNDKKHRKRAFQKRGYWKKMHYFIRKNNMMSYAFKVQNIDYEKIKKLKRGEVYSN	not soluble
MAHHHHHHMKNFFILHLRNNYSIFLNKPLQVFTLNVKLNSHVKVNYKHELLTYEFRKITYVKKKKKKSYHNCDGRYITTLNKTININEKYSKLKNDGLLNSTPDNHIKDNIIKEDLLYRKNNEKENEEVIKSNIDENKNVHMNDQNEQNKHCYNKLLIESCCHIDKDVKKSLLEIFQYKEFTDVQRIVYDNIIKEKKQNDLLIQAKTGTGKTIAYLLLSINDIIKNKILSVHTLIIVPTRELANQIYNECKLLLTYKHNINVLTLTGGIKRRDDQLNIRRIKPDIIICTVGRLLDHFESTYLFNTLFENLKMLIIDEADQLLSTGYENDIHRLLTYLPSNRRNILLSATLGYNLDEIRKKMCKSDYIYLNCVKDISKHTSDQLIQYVLFHKAIDTTIILYNLLIEHMRLNQFTYKIIVFFPTARATSFYAQFFINQLKISVYEIHRKKEMAHRQITANRFSMESVGILFTSDISSRGLNYPDITLIIQVNTPISREQYIHRVGRTARSNKKGMAIILLNEADELFYQEIKDLNIQKLNAQNYTLKNTNLSNYLSTWMSNTQLLYLAYAYYSSILRFYKTKYTHLKINDDEIIDAVNNMLLSTGLVEQPYISRNLATTLNMQNNVKLKIRKDLDDILLL	not soluble
GMATYNYPEFGAGLWHFANYIDRYAVDGYGPALSTIDQINAAKEVGELSYVDLPYPFTPGVTLSEVKDALKDAGLKAIGITPEIYLQKWSRGAFTNPDPAARAAAFELMHESAGIVRELGANYVKVWPGQDGWDYPFQVSHKNLWKLAVDGMRDLAGANPDVKFAIEYKPREPRVKMTWDSAARTLLGIEDIGLDNVGVLLDFGHALYGGESPADSAQLIIDRGRLFGMDVNDNLRGWDDDLVVGTVHMTEIFEFFYVLKINNWQGVWQLDQFPFRENHVEAAQLSIRFLKHIYRALDKLDIPALQAAQEAQNPLQAQRIVQDALLSSITVSE	soluble
MAHHHHHHMLIPVRCYSCGKVVGHLYELYQELLNQDHTEAEALNALRLSRMCCRRMILSHIDLADDLLPYSVPVVGSMPLINPVQGPVPRRQ	not soluble
MAISKKKRFFFDLAQDEDDAETVQEVKKVEQQLKLEPVVQPQHDLTNQTKANQSSQDRKFFSKDMPQFDFGPLLKFGDEFVKSFNQFPKQEPQTSTQPVNVQPQSEPTNFNNQVPTQPVHQTAEVHLNEFQQPTTTNFNQQPVATSNIQVEATQPIVEPVPQPEPQPAVEQPQVKQTTRPSNKLQEEENLPPPKAKVPGIIPLERQERLTTGVHFYTSTRVWNKVKRYAKAVNIPISRILTMILDQVIEE	soluble
METFKDRLVFLWKSEARQAKIASDIEMTIAGFSRIWNEGGLPKSETLKKIKQLKGCSIDWLLTGEGNPFPDEAPKKSLAYDTLGNEVDTDEFVFVPRYDIRAAAGYGQFVDHEEPVFTMAFRRHWIENYVTRDTKNLSVISVKGDSMEGVLNDGDSILVNHGENTPRDGLYVLRINENLLVKRLQIVPGGIINVISANEAYPAFEINLNDLTDDVEIIGRVEWFGRTI	not soluble
MTRYALLVRGINVGGKNKVVMAELRQELTNLGLEKVESYINSGNIFFTSIDSKAQLVEKLETFFAVHYPFIQSFSLLSLEDFEAELENLPAWWSRDLARKDFLFYTEGLDVDQVIATVESLELKDEVLYFGKLGIF	not soluble
MARKHIYIAYTGGTIGMKKSDHGYVPVAGFMEKQLASMPEFHRPEMPLFTIHEYDPLMDSSDMTPADWQLIADDIAANYDKYDGFVILHGTDTMAYTASALSFMFENLGKPVIVTGSQIPLADLRSDGQANLLNALHVAANYPINEVTLFFNNRLMRGNRSRKSHADGFSAFSSPNLPPLLEAGINIELSTNVKVDEKPSGEFKVNPITPQPIGVITMYPGISHEVIRNTLLQPVNAMILLTFGVGNAPQNPELLAQLKAASERGVIVVNLTQCLAGKVNMGGYATGCALADAGVISGYDMTPEAALAKLHYLLSQNLSYEEVKAKMQQVLRGEMTL	soluble
MTLIPPVQAIAGTSAAATQALSPVATPNQALVNRFQALMQSSSPLPPAMQRVGNPSMMSRVVDVQNDGVRTIAEHIDAFSMQAPTMGLQEMAAQQIKLMHELTMVGFNLNVSVGVAQSGKNAVQTLVKNQ	not soluble
MSEVESQQSQETNGSSKFDVPEIELIIKASTIDGRRKGACLFCQEYFMDLYLLAELKTISLKVTTVDMQKPPPDFRTNFEATHPPILIDNGLAILENEKIERHIMKNIPGGYNLFVQDKEVATLIENLYVKLKLMLVKKDEAKNNALLSHLRKINDHLSARNTRFLTGDTMCCFDCELMPRLQHIRVAGKYFVDFEIPTHLTALWRYMYHMYQLDAFTQSCPADQDIINHYKLQQSLKMKKHEELETPTFTTYIPIDISE	soluble
METKKTLREGYTTGSCATVATKAALTALITGQVQAEATIRLPIGRVVTFSLASCSFDGETATASVVKDGGDDPDATHGALIVSTVSWTSSPGVHIDGGEGVGRVTKPGLPVPVGEAAINPVPRQMIREAVNEVLAQYGLHRGVKVVISVPGGEEIAKKTLNPRLGIIGGISILGTRGIVVPFSTAAYRASIVQALQVAKANGCRHVVITTGGRSEKYAMQEYPHLPEEAFIEMGDFVGFTLKQCKRLGIKMVSMVGMMGKFSKVAQGVMMVHSKSAPVDFGFLAAIAEQAGACPELVAAVRGANTAAQVGDMMQEAGCTKFFELLCEACCQAALHEVGGGLTVATSIYTMNGQRLGKAVQTDGDDEVDRCRC	not soluble
MVMSQKTLFTKSALAVAVAIISTQAWSAGFQLNEFSSSGLGRAYSGEGAIADDAGNVSRNPALITMFDRPTFSAGAVYIDPDVNISGTSPSRRTLDADNIAPTAWVPNVHFVAPINDQFGWGASITSNYGLATEFNDTYAGGSVGGTTDLETMNLNLSGAYRLNEAWSFGLGFDAVYARAKIERFAGDLGQLVAAQNPALAPVAGQIPSDTKIAHLNGNQWGFGWNAGILYELDKNNRYALTYRSEVKIDFKGNYSSDLPIAINRFNLPIPTATGGATQSGYLTLNLPEMWEVSGYNRVAPQWAIHYSLAYTSWSQFQELKAKSTAGDTLFEKHEGFKDAYRIALGTTYYYDDNWTFRTGIAFDDSPVPAQNRSISIPDQDRFWLSAGTTYAFNKDASVDVGVSYMHGQSVKINEGPYQFESEGKAWLFGTNFNYAF	not soluble
MSLVLNDLLICCRQLEHDRATERKKEVEKFKRLIRDPETIKHLDRHSDSKQGKYLNWDAVFRFLQKYIQKETECLRIAKPNVSASTQASRQKKMQEISSLVKYFIKCANRSK	not soluble
MGSDKIHHHHHHMPRGPTKKKTEDTTSQSLESKLWATADKLRGHLDAADYKHVVLGLIFLKYISDRFAQRHEEIIREEAGTYAAEDRDEYTAEGVFWVPASSRWAVVQTAAKQPDIGKRIDGAMTDIERENPHLKNILPKGYARPTLDQRRLGELVDLIGTIGLGTAEHQARDTLGRVYEYFLGRFASAEGKRGGEFYTPASVVRTLVTMLAPYKGRIYDPCCGSGGMFVQSEKFIEAHGGKVGDISVYGEESNPNTWKLALMNLAIRGIEADLGPEAADTFHKDLHPDLRADYILANPPFNISDWGGDLLRDDKRWQYGIPPTGNANFAWVQHMVHHLAPYGIAGFVLANGSMSSNTSGEGEIRKNLIEADLVDCMVAMPGQLFYSTQIPVCLWFLAKNRDDGRGMTGKELFERTGEVLFIDARNMGFMADRTHRELTDEDIQKIADTYHNWRGDGDGEYADIPGFCKAASLDDIRKNGHVLTPGRYVGAAAKDDDGEPFEEKMDRLTKELSAQLAEGRRLEDEMLKNFRVLGYEL	not soluble
TTNLFGFGIDAESRLDLNSKDMTPEKKAKAESETKRLQEFIRYANLDEGTETVFQNIIEDQEKTGNGYIEVLRDGKGQPVELVHCDSQYIRVCKKTEPVEVGYTIMEKGEPVNILRNKRFRKFVQIIDEKKVWFKEYGDPRIMDSTNGNYVEESELESKEFRDATEIIHFKIGTSAYGVPRWIGNVVSLYGARKAEELNLLYFVNGRHVPAAVVVQGGLLDEDAYNNLEEYMKGVSGTENAYQFLVLEVQGEEITNANGDKNLSDVKVEIKSLADMIQKDAMFLEYDATHRKKMRSSFRLPPIYTGEADEYNKATAETARKTTEEQVFQPMRRKLARKINGAFLEALDISEAKLVLKSPDLTDIASISNAIYPFISAASVIPNDLRPMLE	not soluble
MGSDKIHHHHHHGKGQQPSEENEDPKAKEILQGIWLDDETETPLMRIIGDTIYYSDAQSAPVYFKILKDTLYTYGKDVTHYQIDKQSEYSFWFHSLADNIIKLHKSEDPNDTLAFSFKSVEIIPTYTEVTKKDSVVMFDGVRYRAYVYINPSQMKVVKTTYSEDGISMDNIYYDNVMHICVYEGKKSLYAKDITKQMFVDVIPTDFLQQAILSDMNFIGIDRKGYHYQALVCIPESPVCNLVNLTISFDGKLNITAAKYK	not soluble
MKIVDANVLLYAVNTTSEHHKPSLRWLDGALSGADRVGFAWVPLLAFVRLATKVGLFPRPLPREAAITQVADWLAAPSAVLVNPTVRHADILARMLTYVGTGANLVNDAHLAALAVEHRASIVSYDSDFGRFEGVRWDQPPALL	soluble
MPPQPQIMVDLQMEQVMPNPDLKNIARLISQDPGLSGALLKLVNSPFFGLANRITSIQRAVNLLGSRSVINLINAQSIKGEMSDDTIVTLNRFWDTAQDVAMSCLSLAKRIGYESVDEAYALGLFHNCGIPLMLKRFPHYMAVLEEAYAAASDERRVVDTENRVLNTNHAVVGYYTARSWRLPEHVCEAIANHHNALSIFGDESARDTQLKNLLAILKMAEHICGSHRVLGNQPEDHEWNSIGALVLDYVGLTDYDFENLKGSILELGVGQGSY	not soluble
